Results taken from IntAct's records for PubMed 17227844.

B1: Spindle assembly checkpoint protein BUB3 (Saccharomyces cerevisiae), P26449 (parent)
chain: MQIVQIEQAPKDYISDIKIIPSKSLLLITSWDGSLTVYKFDIQAKNVDLLQSLRYKHPLLCCNFIDNTDLQIYVGTVQGEILKVDLIGSPSFQALTNNEANLGICRICKYGDDKLIAASWDGLIEVIDPRNYGDGVIAVKNLNSNNTKVKNKIFTMDTNSSRLIVGMNNSQVQWFRLPLCEDDNGTIEESGLKYQIRDVALLPKEQEGYACSSIDGRVAVEFFDDQGDDYNSSKRFAFRCHRLNLKDTNLAYPVNSIEFSPRHKFLYTAGSDGIISCWNLQTRKKIKNFAKFNEDSVVKIACSDNILCLATSDDTFKTNAAIDQTIELNASSIYIIFDYEN
partner: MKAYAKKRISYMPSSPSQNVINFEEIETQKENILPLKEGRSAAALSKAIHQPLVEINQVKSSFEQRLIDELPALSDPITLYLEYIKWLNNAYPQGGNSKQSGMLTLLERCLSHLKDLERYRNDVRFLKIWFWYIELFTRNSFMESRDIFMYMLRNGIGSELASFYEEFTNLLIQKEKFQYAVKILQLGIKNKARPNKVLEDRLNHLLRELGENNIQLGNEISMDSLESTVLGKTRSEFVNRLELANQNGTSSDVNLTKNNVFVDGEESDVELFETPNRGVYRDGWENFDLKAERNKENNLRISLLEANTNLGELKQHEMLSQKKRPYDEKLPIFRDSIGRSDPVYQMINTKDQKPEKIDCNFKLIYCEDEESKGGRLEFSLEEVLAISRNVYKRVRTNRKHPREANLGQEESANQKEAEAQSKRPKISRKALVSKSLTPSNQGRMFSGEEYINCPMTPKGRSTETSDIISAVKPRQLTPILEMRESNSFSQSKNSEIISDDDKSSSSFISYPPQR

Variants of: B1
Conditions: with mad3_yeast MAD3, P47074
In the case of R197E, the “effect of a mutation on the interaction” value is reported as “disrupting interaction strength”.
